Assay results reported in patent US11452764B2, “Inhibiting FAK-AKT interaction to inhibit metastasis” (Board of Trustees of Michigan State University, priority 2017, dated 2022).
Entries after “also recorded” stand apart in the source; their conditions may differ. Where no end group is shown, it is not given here.

Columns and labels:
FAK-Akt1 interaction = target: T1, FAK-Akt1 interaction (Homo sapiens, UniProt P31749); assay: Interference of FAK-derived peptides with GST-FAK / GST-FAK-NT1 pull-down of Akt1; format: binding; details: for Akt1 pulldown by full length GST-FAK in presence of interfering 7 amino acid peptide: bait human wild type GST-FAK, peptides at 160 μM, vs. vehicle, n=12-14
T1 construct: endogenous in cells; host or cells: Akt1 from Caco-2/SW620 cell lysate; GST-FAK bait expressed in E. coli BL21 (pGEX-4T1)
Experimental: (§1) In some cases Glutathione-Sepharose-4B beads (30 μl) (GE Healthcare Life Science, Pittsburgh, Pa.) were conjugated with GST (expressed protein from a 250 μl bacterial pellet per 30 μl of beads) or recombinant GST-tagged (expressed protein from a 3 ml bacterial pellet per 30 μl of beads) (24) and incubated with lysate from 2×10^7 Caco-2 or SW620 cells (1500 μg protein) or purified Akt1 (0.35 μg) (Origene, Rockville, Md.) overnight at 4° C. Similar incubation for two hours at 4° C. was performed with FAK-derived peptides (Peptide 2.0, Chantilly, Va.) reconstituted in sterile water and mixed with conjugated beads and cell lysate for a final concentration of […] before overnight Akt1 incubation. Bound protein was eluted for western analysis (24).
To minimize the effect of non-specific binding to GST, a larger FAK-NT1 peptide (relative to GST) was used as bait and the effects of interference by NT1-2-2 FAK truncated peptides were assessed.
A full length GST-FAK was used as bait to further validate the ability of the interfering peptides to block Akt1 interaction with the entire FAK molecule. Because the seven-amino acid sequence from the short helix (LAHPPEE, SEQ ID NO:1) seemed sufficient for Akt1 binding (e.g., as shown in FIG. 6E), the focus was placed on this seven amino acid sequence and mutants thereof. […] Neither a scrambled version of the short helix (HPELAPE, SEQ ID NO:23) nor a peptide derived from the β-strand secondary structure C-terminal adjacent to the short helix (WKYELRI) interfered with pulldown.

Akt1 [1] = target: T2, Akt1 (Homo sapiens, UniProt P31749); assay: GST-FAK truncation/mutant fusion protein pull-down of Akt1 (cell lysate or purified Akt1); format: binding; design: endogenous in cells; host or cells: Caco-2 or SW620 cell lysate; details: for Akt1 pulled down by GST-FAK truncations: GST pull-down, N=4, p<0.05; for Akt1 pull-down by mutated GST-FAK-NT1 versus wild-type NT1: SW620 lysate, densitometry normalized to wild-type NT1, n=8-19, p<0.05
Experimental: Glutathione-Sepharose 4B beads (15 μl) were washed twice in ice-cold PBS and resuspended in 400 μl PBS. Bacterial lysate containing GST-Akt1, GST-FAK-NT1 (truncations), or GST proteins (gift of Dr. J. Chen) were then added in excess and incubated with the beads for 1 h. Glutathione-Sepharose 4B beads coupled to GST-Akt1, GST-FAK (truncations), or GST were then washed twice with PBS by centrifuge for 5 min at 500 g and incubated with nontransfected or transfected Caco-2 cell lysates (600-800 μg protein) overnight at 4° C. Transfected Caco-2 cells received plasmids encoding HA-WT-FAK or HA-FRNK. Nontransfected and transfected Caco-2 cell lysates were prepared in cell lysis buffer lysis buffer [50 mM Tris (pH 7.4), 150 mM NaCl, 1% Triton X-100, 1% sodium deoxycholate, 0.1% SDS, 1 mM EDTA, 1 mM phenylmethylsulfonyl fluoride, 1 mM Na3VO4, 50 mM NaF, 10 mM sodium pyrophosphate, […] (pH 7.4)]. Following incubation, beads were washed twice with lysis buffer without SDS and protease inhibitors. Proteins were eluted with Laemmli SDS sample dilution buffer, separated by 10% SDS-PAGE, and immunoblotted with GST, Akt1 (Cell Signaling Technology, Danvers, Mass.), or HA monoclonal antibodies (Covance, Chantilly, Va.).
as §1
Target sequence in this assay (P31749 whole entry, the tested form may be a part): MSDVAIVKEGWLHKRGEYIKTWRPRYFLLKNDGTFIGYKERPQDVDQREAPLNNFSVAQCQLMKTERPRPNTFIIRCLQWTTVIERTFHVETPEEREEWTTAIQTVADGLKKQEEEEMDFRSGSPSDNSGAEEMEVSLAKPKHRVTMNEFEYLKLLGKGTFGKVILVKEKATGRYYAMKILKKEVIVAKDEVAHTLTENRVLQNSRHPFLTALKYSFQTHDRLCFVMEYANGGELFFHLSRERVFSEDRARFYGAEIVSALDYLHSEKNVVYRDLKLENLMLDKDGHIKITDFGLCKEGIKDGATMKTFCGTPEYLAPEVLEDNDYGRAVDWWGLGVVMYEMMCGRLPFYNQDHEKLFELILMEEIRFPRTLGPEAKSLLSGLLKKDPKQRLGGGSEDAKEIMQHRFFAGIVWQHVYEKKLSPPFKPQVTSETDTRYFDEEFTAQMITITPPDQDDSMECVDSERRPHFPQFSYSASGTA
Protein concentrations were determined by bicinchoninic acid (BCA) protein assay (Pierce, Rockford, Ill.). Eluate from GST pull-downs or collected cell lysates was resolved by SDS-PAGE and transferred to Hybond P 0.45 PVDF blotting membrane (Amersham Life Science, Arlington Heights, Ill.). Membranes were blocked for 1 hour at room temperature with Odyssey TBS Blocking Buffer (Amersham Life Science, Arlington Heights, Ill.) and blotted overnight at 4° C. with antibodies against FAK (#3285), Phospho-FAK Tyr397 (#3283), Akt1 (#2967), Phospho-Akt1 Ser473 (#9271), GSK-3β (#9315), Phospho-GSK-3β Ser9 (#9315), or the GST tag (#2624) (CST, Beverly, Mass.). Membranes were visualized by the infrared fluorescent IRDye system (LI-COR Biosciences, Lincoln, Nebr.) and analyzed on an Odyssey scanner (LI-COR Biosciences, Lincoln, Nebr.) within the linear range. The doublet produced by the Akt1 antibody is consistent with results with this antibody (Ko et al., Elife: 5 (2016); Wu et al. Cell Discov 3: 16054 (2017)) and other (Datta et al. Cell 91: 231-41 (1997)) anti-Akt antibodies. Results were normalized to the appropriate GST tag, GAPDH, or total protein (for phosphorylated proteins) and relative to associated ambient controls unless stated otherwise.
Because the NT1 region of FAK is still quite large, we further truncated FAK-NT1 in an attempt to specify the region responsible for Akt1 binding. Five truncations were generated: NT1 (residues 1-126), NT1-1 (residues 1-60), NT1-2 (residues 61-126), […] (residues 61-93), and NT1-2-2 (residues 94-126) (FIG. 4A).
Tests involved use of 0.3 μg of purified Akt1 in pull-down assays to approximate the Akt1 in 1,500 μg of whole cell lysate, the lysate from 1×10^7 SW620 cells previously used in similar pull-down assays. This amount (0.3 μg of purified Akt1) was selected from Western blots comparing band intensity of 0.001-0.05 μg/lane of purified Akt1 against the band intensity of 40 or 80 μg/lane of cell lysate (not shown). […]

SW620 colon cancer cells = assay: Adhesion assay of SW620 cells to collagen I at ambient or 15 mmHg increased pressure (ZINC compounds); format: cell-based, human; details: 30 minutes; for Concentration at which pressure stimulated adhesion was blocked / Pressure stimulated adhesion: 15 mmHg; for Pressure stimulated adhesion / Basal adhesion: concentrations studied 10-200 μM (per compound in Table 3); for Basal adhesion: ambient pressure
Experimental: (§2) Extracellular pressure was increased by 15 mmHg over ambient pressure using a temperature and pressure-controlled box as described by Basson et al. (J Cell Biochem, 78: 47-61 (2000)).
Cells were seeded in an amount of 50,000 cells/well into 24 well plates precoated with collagen I (Sigma, St. Louis, Mo., USA) at 37° C. under ambient or 15 mmHg increased pressure as described by Basson et al. J Cell Biochem 78: 47-61 (2000)). After 30 minutes, non-adherent cells were washed away. Adherent cells were stained with MTS (CellTiter 96® AQueous One Solution Cell Proliferation Assay, Madison, Wis., USA) and plates were read at 490 nm.
Seven molecules were studied that structurally mimic AAHPSEE (SEQ ID NO:24), including five analogs of ZINC04085549 (FIG. 16A-16G). These molecules' effects on basal and pressure-stimulated human SW620 colon cancer cell adhesion to collagen I were assayed first. Most molecules had no effect at the concentrations studied (Table 3).

Akt1 [2] = target: T2, Akt1; details: Zeng et al., Oncotarget 2017; cited from earlier work
Target sequence in this assay (P31749 whole entry, species assumed, the tested form may be a part): as the sequence (P31749 whole entry, the tested form may be a part) above

[3] = test system: FAK-Tyr-397 phosphorylation; assay: FAK-Y397 western blotting in suspended SW620 cells at ambient or 15 mmHg increased pressure (ZINC compounds); format: cell-based, human; details: 50 μM
Text: as §2
Cells were maintained at ambient or increased pressure in bacteriologic plastic dishes pacificated with heat-inactivated bovine serum albumin to prevent adhesion and avoid adhesion-associated background FAK activation. Cells were lysed in lysis buffer, resolved by 10% SDS-PAGE, transferred to nitrocellulose and blotted with antibody to Tyr-397-phosphorylated FAK (rabbit monoclonal ab81298, Abcam, San Francisco, Calif., USA) and anti-rabbit 680 (LI-COR Inc. Lincoln, Nebr., USA), before quantitation using Kodak Scientific Imaging Systems 1D, V.3.5.4 (Zeng et al., Oncotarget, 8 98051-98067 (2017)). Total FAK (Anti-FAK, clone 4.47 Merck, Darmstadt, Germany with secondary anti-mouse 800, LI-COR Inc. Lincoln, Nebr., USA) served as a loading control. FAK and Tyr-397-phosphorylated FAK western blots yielded doublets similar to those previously observed by others (McConnell et al. Mol Cancer 10: 75 (2011); Aflaki et al. Cell Mol Life Sci, 68: 3933-3947 (2011)); Das et al. Cancer Res, 72: 6217-6226 (2012); Ammoun et al. Oncogene, 31: 1710-1722 (2012)). Both bands were quantitated together.
Four structurally similar molecules to the FAK-derived sequence LAHPP (SEQ ID NO:25) (Table 2) were evaluated for their ability to prevent FAK activation by 15 mmHg increased extracellular pressure in human SW620 colon cancer cells. […] The structures of these compounds are shown below (and in FIG. 17).

T1 sequence (P31749 whole entry): as the sequence (P31749 whole entry, the tested form may be a part) above

HPELAPE [scrambled short helix control peptide, reference compound]
Akt1 pulldown by full length GST-FAK in presence of interfering 7 amino acid peptide (FAK-Akt1 interaction): No such effect

NT1-2-1: recombinant GST-FAK truncated peptide, residues 61-93 (ATDVRGIIQKIVDSHKVKNVACYGFRLSHLRSE; also: recombinant GST fusion (GST tag); listed as Homo sapiens)
Akt1 pulled down by GST-FAK truncations (Akt1 [1]): significantly smaller amount of Akt1

NT1-2-2: recombinant GST-FAK truncated peptide, residues 94-126 (SEQ ID NO:2) (EVHWVHLDMGVSSVREKYELAHPPEEWKYELRI; also: GST fusion (recombinant))
Akt1 pulled down by GST-FAK truncations (Akt1 [1]): significantly more Akt1
Akt1 pull-down by GST-NT1-2-2 and its truncations versus GST control (Akt1 [1]; n=6, p<0.05 vs. GST): pulled down much more

LAHPSEE [mutant (P117S) version of the seven amino acid FAK peptide]
Akt1 pulldown by full length GST-FAK in presence of interfering 7 amino acid peptide (FAK-Akt1 interaction): reduced Akt1 pulldown

EVHWVHLDMGVSSVREKYELAHPPEEWKYELRI (listed as Homo sapiens) [Pep-FAK-NT1-2-2, wild-type 33 amino acid FAK peptide, residues 94-126]
Akt1 pulled down by GST-FAK-NT1 in presence of interfering 33 amino acid peptide (FAK-Akt1 interaction; bait GST-FAK-NT1, vs. vehicle (water), n=4): reduced binding between GST-FAK-NT1 and Akt1

COc1ccc(C(=O)O/N=C2\CCCCC2c2ccc([N+](=O)[O-])cc2[N+](=O)[O-])cc1 (stereo not drawn) [ZINC4085554]
Concentration at which pressure stimulated adhesion was blocked (SW620 colon cancer cells): ≥50 µM
Pressure stimulated adhesion (SW620 colon cancer cells): prevented pressure-stimulated increases in SW620 adhesion; also recorded: Blocked
Basal adhesion (SW620 colon cancer cells): without altering basal adhesiveness at ambient pressure; also recorded: Maintained

LAHPPEE (listed as Homo sapiens) [wild-type seven amino acid short helix peptide, FAK residues 113-119]
Akt1 pulldown by full length GST-FAK in presence of interfering 7 amino acid peptide (FAK-Akt1 interaction): reduced Akt1 pulldown

FAK(L113A/P116C/P117G): GST-FAK-NT1 triple mutant (AAHCGEE)
Akt1 pull-down by mutated GST-FAK-NT1 versus wild-type NT1 (Akt1 [1]): increased Akt1 pull-down

AAHPSEE [two-site mutant of FAK residues 113-119, more helical analog used as screening query]
Competition with FAK for binding to AKT1 (Akt1 [2]): effectively compete with FAK for binding to AKT1

FAK(P117S): GST-FAK-NT1 with P117S mutation (LAHPSEE)
Akt1 pull-down by mutated GST-FAK-NT1 versus wild-type NT1 (Akt1 [1]): lowered Akt1 pull-down

Cc1ccccc1C(=O)O/N=C1\CCCCC1c1ccc([N+](=O)[O-])cc1[N+](=O)[O-] (stereo not drawn) [ZINC04085549]
Concentration at which pressure stimulated adhesion was blocked (SW620 colon cancer cells): ≥50 µM
Pressure stimulated adhesion (SW620 colon cancer cells): prevented pressure-stimulated increases in SW620 adhesion; also recorded: Blocked
Basal adhesion (SW620 colon cancer cells): without altering basal adhesiveness at ambient pressure; also recorded: Maintained
Basal ambient pressure FAK-Tyr-397 phosphorylation ([3]; suspended SW620): without affecting basal ambient pressure FAK-Tyr-397 phosphorylation
Pressure-stimulated FAK-Tyr-397 phosphorylation ([3]; suspended SW620, 15 mmHg): prevented pressure-stimulated FAK-Tyr-397 phosphorylation

NT1-1: recombinant GST-FAK truncated peptide, residues 1-60 (MAAAYLDPNLNHTPNSSTKTHLGTGMERSPGAMERVLKVFHYFESNSEPTTWASIIRHGD; also: recombinant GST fusion (GST tag); listed as Homo sapiens)
Akt1 pulled down by GST-FAK truncations (Akt1 [1]): significantly smaller amount of Akt1

WKYELRI [β-strand control peptide, C-terminal adjacent to the short helix, reference compound]
Akt1 pulldown by full length GST-FAK in presence of interfering 7 amino acid peptide (FAK-Akt1 interaction): No such effect

AAHCGEE [triple mutant L113A, P116C, P117G version of the FAK peptide]
Akt1 pulldown by full length GST-FAK in presence of interfering 7 amino acid peptide (FAK-Akt1 interaction): reduced Akt1 pulldown
